# Laboratory results published in the supplement of paper PMC9170038.
# Tested on: MS2 coat protein
# Experiment: apparent KD of MS2 coat protein; designed switch direction (-1 OFF switch, 1 ON switch): -1; higher = weaker reporter binding
# Outline: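 SNAP-549-labelled MS2 coat protein was titrated, doubling from 0.7 or 1.5 nM to 3 µM, over designed RNA switches transcribed on Illumina chips by stalled E. coli RNA polymerase. Runs were done without input, with 200 uM small-molecule ligand, or with an oligonucleotide input. Apparent KD is the per-design median over clusters of curve-fitted normalised fluorescence.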
# [1] = Eterna round: R95, input ligand: microRNA oligo, concentration not stated
# [2] = input ligand: microRNA oligo, concentration not stated
Sequence,apparent KD of MS2 coat protein (input ligand: FMN 200 uM),apparent KD of MS2 coat protein (input ligand: none),apparent KD of MS2 coat protein [2],further results
"GUAGAGUCAGGAUAUACAAGAUCGAUAGAUCGGCGGUCCAUACAUGAGGAUCACCCAUGUAGAAGGGACUCUAC [Mat - Exclusion 2 - Eli Mod - D5] (Eterna round: R97, puzzle: Exclusion 2)",514 nM,27.2 nM,,
ACCUUACAUGAGGAUCACCCAUGUCAGGAUAUCUCGGGCGGCUGGAGACCAGCCGCCCAGAGAAGGGACGAGGA [Engeisbe] (puzzle: Exclusion 1),,,,apparent KD of MS2 coat protein [1]: 12.2 nM
"GUCUACAUGACAUGAGGAUCACCCAUGUGUUAUAUUUUUACUAAGGAUAUAUUUUUAAUGUUGAGAUAGAAGGUAGUUUCGGUC [JR_ExcNG3_Sub093] (Eterna round: R96, puzzle: Exclusion NG 3)",,,32.8 nM,
AUCGUGAAGAAGGAUAUGGGCCCGGUAAAACGACUAGAAGGUCUGACAUGAGGAUCACCCAUGUGAUACCAAAA [Veve] (puzzle: Exclusion 6),,,,"apparent KD of MS2 coat protein (Eterna round: R95, input ligand: FMN 200 uM): 34.1 nM; apparent KD of MS2 coat protein [1]: 42.9 nM; apparent KD of MS2 coat protein (Eterna round: R95, input ligand: none): 35.3 nM"
"AAUAUUAGAGGAUAUGCACUUGCACUAACGAAAUCCUCACCACAUGAGGAUCACCCAUGUAGAAGGCUGGUGGU [Eternabot (L2) Solution 65] (Eterna round: R97, puzzle: Exclusion 2)",354 nM,487 nM,,
CCAAGCUGUGUGAGGAUAUGCUGGUCGAAAGAUCAGCAGAAGGCACAUGAGGAUCACCCAUGUGAAAAGCUUGG [Mat - Exclusion 4 - JL Mod - D93] (puzzle: Brourd's mod of Exclusion 4),,,,apparent KD of MS2 coat protein [1]: 16.3 nM
"GUCAGACGAGGAUAUGAUAAUUAAUACAUGAGGAUCACCCAUGUAAUACUGAUCCAUGGAUCAGAAGGCGUCUGAC [E5/4-A4] (Eterna round: R97, puzzle: Exclusion 5)",42.7 nM,17.6 nM,,
"GCAUGCGACUGAGGAUAUGUAGUGACCUCAGUCGAGACAUGAGGAUCACCCAUGUACAGCACGUGACAGAAGGCAGCACAUGAU [Eternabot solution 14] (Eterna round: R96, puzzle: Exclusion NG 2)",63.2 nM,53.7 nM,38.5 nM,
"ACAUGAGGAUCACCCAUGUCCGGCUGGUCCGUUUCGGCUGUCGAGGAUAUAGUUCGGUGUCCGCGCUAGAAGGCGGGAGCUGGC [Aenatbe mod 61] (Eterna round: R96, puzzle: Exclusion NG 3)",181 nM,98.5 nM,67 nM,
"GGAACUGGAGGAUAUACAUGAGGAUCACCCAUGUAUAGAUAUGGUUAUUAGCCUCAUAGUAGAAGGUUAGUGGC [EX3 C.4] (Eterna round: R97, puzzle: Exclusion 3)",21.6 nM,20.1 nM,,
"ACAUGAGGAUCACCCAUGUGAAAAGAAUGGCUGACACAGAGAUAGGAUAUGCGUGCAUAUCUAACGCAGAAGGGUCAUGACUGG [Deportation 81 - Jieux - Exclusion NG 3] (Eterna round: R96, puzzle: Exclusion NG 3)",25.9 nM,28.3 nM,22.4 nM,
"UAUUGGAUAGGAUAUACAUGAGGAUCACCCAUGUGGACGGCUAAGCCUACCGCGCAGAGUAGAAGGGUCGGGUG [Eternabot (L1) Solution 66] (Eterna round: R97, puzzle: Exclusion 3)",161 nM,155 nM,,
"GACCUCACUGUAGGAUAUGACCGAUCCAGAGGAUCAGAAGGACAUGAGGAUCACCCAUGUGCGUGGAGGGAACGUAAGAAACAA [Eternabot solution 2] (Eterna round: R96, puzzle: Exclusion NG 1)",323 nM,52.9 nM,29.4 nM,
UCGGCGCGAGGAUAUACGUUUGCGCGUUUUCGUUUGCGCGUACAUGAGGAUCACCCAUGUAGAAGGCGCGCGGC [Apr-15 SS2-13] (puzzle: Exclusion 2),,,,apparent KD of MS2 coat protein [1]: 11.5 nM
